Target: cGAS (Homo sapiens, UniProt Q8N884 1-522)
Assay: EMSA

Chain of cGAS (Q8N884 whole entry): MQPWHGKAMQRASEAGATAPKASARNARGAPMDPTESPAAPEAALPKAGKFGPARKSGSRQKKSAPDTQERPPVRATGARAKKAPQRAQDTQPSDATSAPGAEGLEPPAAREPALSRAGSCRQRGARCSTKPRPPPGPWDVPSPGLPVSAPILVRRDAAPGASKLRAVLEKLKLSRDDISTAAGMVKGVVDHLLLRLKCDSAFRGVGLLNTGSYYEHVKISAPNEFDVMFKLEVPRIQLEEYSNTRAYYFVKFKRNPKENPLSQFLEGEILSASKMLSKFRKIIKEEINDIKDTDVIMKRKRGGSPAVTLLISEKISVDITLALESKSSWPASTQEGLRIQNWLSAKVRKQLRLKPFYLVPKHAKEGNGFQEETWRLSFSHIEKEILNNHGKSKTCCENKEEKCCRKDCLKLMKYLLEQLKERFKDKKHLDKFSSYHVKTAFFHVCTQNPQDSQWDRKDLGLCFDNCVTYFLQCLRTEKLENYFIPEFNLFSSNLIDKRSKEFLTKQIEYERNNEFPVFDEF

B1: 70bp Oligo 2 (dsDNA)
DNA 1: GGCAAGCAGGCCTTCTCATGCGTATATCAACGTGTCCGTTTGAGATATCAGTGTTCTCTTTCCCGGTTAA
DNA 2: TTAACCGGGAAAGAGAACACTGATATCTCAAACGGACACGTTGATATACGCATGAGAAGGCCTGCTTGCC
B1: binds.
